Source: paper doi:10.1101/2025.01.15.633165, “The mechanism of DRB7.2:DRB4 mediated sequestering of endogenous inverted-repeat dsRNA precursors in plants” (bioRxiv, 2025)
Several values for one entry are separate records, joined by “and”; a condition that tells them apart may be missing. Identical values can stand only once. Each block holds one binder with its values, some of them ahead of it.

B4: DRB7.2 (M1-V190) (natural protein, A. thaliana, UniProt F4JHB3 1-190, looked up)
chain: MDLPPPESSSNPISSFSVAQKRMLLQRCESKFKIRKLNDTVEEDNVTQMEPNFTLENTLVSEPEADLRPHTTEPTTEEETQRSSAKSQLYNLCSVRHWKAPLYEYIAEGPCHMKIFTGKVTVEMKEDSRITVLECFGNPQYKKKIAAEQAAEAALWYLKNVGYTLQTEKASGRKGRSKPISKMMVTGEPV
notes: DRB7.2, A. thaliana, UniProt F4JHB3, residues M1-V190; Perdeuterated and U-15N labelled for NMR; Further cloning details are in Paturi & Deshmukh, 2023; also called full-length DRB7.2
B5: DRB4 (1-355) (natural protein, A. thaliana, UniProt Q8H1D4 1-355, looked up)
chain: MDHVYKGQLQAYALQHNLELPVYANEREGPPHAPRFRCNVTFCGQTFQSSEFFPTLKSAEHAAAKIAVASLTPQSPEGIDVAYKNLLQEIAQKESSLLPFYATATSGPSHAPTFTSTVEFAGKVFSGEEAKTKKLAEMSAAKVAFMSIKNGNSNQTGSPTLPSERQEDVNSNVKSSPQEIHSQPSSKVVMTPDTPSKGIKVNEDEFPDLHDAPASNAKEINVALNEPENPTNDGTLSALTTDGMKMNIASSSLPIPHNPTNVITLNAPAANGIKRNIAACSSWMPQNPTNDGSETSSCVVDESEKKKLIMGTGHLSIPTGQHVVCRPWNPEITLPQDAEMLFRDDKFIAYRLVKP
notes: DRB4, A. thaliana, UniProt Q8H1D4, residues 1-355; source: cloned, expressed and purified as described (Chiliveri et al, 2017)

Experiments:
DRB7.2M (T71-G162) [1] = molecular target: T1, DRB7.2M (T71-G162) (A. thaliana, UniProt F4JHB3 71-162); experiment: ITC; DRB4 constructs (200 μM, syringe) injected into DRB7.2 or DRB7.2M (20 μM, cell); 25 °C; 50 mM potassium phosphate pH 7.0, 50 mM NaCl, 50 mM Na2SO4, 2 mM DTT; conditions: both partners purified
T1 construct: DRB7.2, A. thaliana, UniProt F4JHB3, residues T71-G162 (dsRBD S84-G162 with the N-terminal flanking residues T71-S83); Isotope labelled (15N, 13C, 2H) or perdeuterated for NMR; Further cloning details are in Paturi & Deshmukh, 2023; also called dsRBD region of DRB7.2; DRB7.2 dsRBD
T1 sequence (looked up): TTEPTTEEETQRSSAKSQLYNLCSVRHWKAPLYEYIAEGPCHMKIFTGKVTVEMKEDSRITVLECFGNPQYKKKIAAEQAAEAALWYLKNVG

DRB7.2 (M1-V190) = molecular target: B4; experiment: as above; conditions: both partners purified
DRB7.2M (T71-G162) [2] = molecular target: T1, DRB7.2M (T71-G162); experiment: ITC; DRB4D3 and the preformed complex of DRB7.2M:80 bp dsRNA; one site binding model; conditions: both partners purified
DRB7.2M (T71-G162) [3] = molecular target: T1, DRB7.2M (T71-G162); experiment: MALDI-TOF MS; samples after SEC; 0.5 mg/mL, 2 mg/mL and 5 mg/mL; conditions: both partners purified
DRB7.2 [4] = molecular target: T2, DRB7.2 (Arabidopsis thaliana, UniProt F4JHB3 1-190); experiment: EMSA; saturation at ~2 uM; 1 nM RNA, 4 C; EMSA: 50 mM potassium phosphate pH 7.0, 50 mM NaCl, 50 mM Na2SO4, 2 mM DTT; 40 bp RNA at 750 nM, 30 min, room temperature; 32P 80 bp dsRNA at 1 nM, 1 h, 4 C; conditions: protein: recombinant; tags: His6 tag with TEV cleavage (pETtrx-1b); Methods text mentions 1 nt 3' overhang
T2 sequence: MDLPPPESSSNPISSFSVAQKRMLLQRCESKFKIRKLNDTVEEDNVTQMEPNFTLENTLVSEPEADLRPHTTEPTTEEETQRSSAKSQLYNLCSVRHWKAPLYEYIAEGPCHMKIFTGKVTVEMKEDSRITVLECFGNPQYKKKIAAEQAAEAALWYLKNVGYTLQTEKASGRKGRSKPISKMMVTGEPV

DRB7.2M = molecular target: T3, DRB7.2M (Arabidopsis thaliana, UniProt F4JHB3 71-162); experiment: as above; conditions: protein: recombinant; tags: His6 tag with TEV cleavage (pETtrx-1b); Methods text mentions 1 nt 3' overhang
T3 sequence: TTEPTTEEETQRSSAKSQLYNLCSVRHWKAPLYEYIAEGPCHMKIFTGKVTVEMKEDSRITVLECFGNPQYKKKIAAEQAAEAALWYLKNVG

DRB7.2M;DRB4D3 = molecular target: T4, DRB7.2M;DRB4D3 (Arabidopsis thaliana;Arabidopsis …, UniProt F4JHB3;Q8H1D4 71-162;294-355, |); experiment: EMSA; saturation at ~2 uM; 1 nM RNA, 4 C; ternary complex also in Fig. S11D; EMSA: 50 mM potassium phosphate pH 7.0, 50 mM NaCl, 50 mM Na2SO4, 2 mM DTT; 40 bp RNA at 750 nM, 30 min, room temperature; 32P 80 bp dsRNA at 1 nM, 1 h, 4 C; conditions: protein: recombinant;recombinant; tags: His6 tag with TEV cleavage (pETtrx-1b);; copies: 1;1; Methods text mentions 1 nt 3' overhang
T4 sequence 1: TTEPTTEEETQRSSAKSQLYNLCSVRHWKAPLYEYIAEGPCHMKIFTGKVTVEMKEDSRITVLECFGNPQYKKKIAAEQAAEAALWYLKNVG
T4 sequence 2: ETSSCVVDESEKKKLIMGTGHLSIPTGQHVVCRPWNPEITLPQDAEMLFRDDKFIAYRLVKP

DRB4D3 [5] = molecular target: T5, DRB4D3 (Arabidopsis thaliana, UniProt Q8H1D4 294-355); experiment: EMSA; EMSA: 50 mM potassium phosphate pH 7.0, 50 mM NaCl, 50 mM Na2SO4, 2 mM DTT; 40 bp RNA at 750 nM, 30 min, room temperature; 32P 80 bp dsRNA at 1 nM, 1 h, 4 C; conditions: protein: recombinant; Methods text mentions 1 nt 3' overhang
T5 sequence: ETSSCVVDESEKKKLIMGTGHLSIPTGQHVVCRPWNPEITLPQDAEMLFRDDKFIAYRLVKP

DRB7.2N = molecular target: T6, DRB7.2N (Arabidopsis thaliana, UniProt F4JHB3 1-81); experiment: EMSA; 20 uM protein, 750 nM RNA; EMSA: 50 mM potassium phosphate pH 7.0, 50 mM NaCl, 50 mM Na2SO4, 2 mM DTT; 40 bp RNA at 750 nM, 30 min, room temperature; 32P 80 bp dsRNA at 1 nM, 1 h, 4 C; conditions: protein: recombinant, tags: His6 (pET28a), label: none (SYBR Gold stain), 1 nt 3' overhang (C) on complementary strand
T6 sequence: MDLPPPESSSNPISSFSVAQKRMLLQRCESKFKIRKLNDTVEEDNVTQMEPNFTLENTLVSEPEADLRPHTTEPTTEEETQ

DRB7.2 [6] = molecular target: T2, DRB7.2; experiment: EMSA; apparent Kd; Hill 2.68±0.77; EMSA: 50 mM potassium phosphate pH 7.0, 50 mM NaCl, 50 mM Na2SO4, 2 mM DTT; 40 bp RNA at 750 nM, 30 min, room temperature; 32P 80 bp dsRNA at 1 nM, 1 h, 4 C; conditions: protein: recombinant, tags: His6 tag with TEV cleavage (pETtrx-1b), label: none (SYBR Gold stain), 1 nt 3' overhang (C) on complementary strand
DRB7.2;DRB4 = molecular target: T7, DRB7.2;DRB4 (Arabidopsis thaliana;Arabidopsis …, UniProt F4JHB3;Q8H1D4 1-190;1-355, |); experiment: EMSA; apparent Kd; Hill 2.05±0.65; EMSA: 50 mM potassium phosphate pH 7.0, 50 mM NaCl, 50 mM Na2SO4, 2 mM DTT; 40 bp RNA at 750 nM, 30 min, room temperature; 32P 80 bp dsRNA at 1 nM, 1 h, 4 C; conditions: protein: recombinant;recombinant, tags: His6 tag with TEV cleavage (pETtrx-1b);, label: none (SYBR Gold stain), 1 nt 3' overhang (C) on complementary strand
T7 sequence 1: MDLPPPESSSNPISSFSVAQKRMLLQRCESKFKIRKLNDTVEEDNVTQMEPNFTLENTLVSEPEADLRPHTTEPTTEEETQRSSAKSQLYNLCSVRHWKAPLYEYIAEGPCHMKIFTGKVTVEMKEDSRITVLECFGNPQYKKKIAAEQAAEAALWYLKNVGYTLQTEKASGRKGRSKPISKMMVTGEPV
T7 sequence 2: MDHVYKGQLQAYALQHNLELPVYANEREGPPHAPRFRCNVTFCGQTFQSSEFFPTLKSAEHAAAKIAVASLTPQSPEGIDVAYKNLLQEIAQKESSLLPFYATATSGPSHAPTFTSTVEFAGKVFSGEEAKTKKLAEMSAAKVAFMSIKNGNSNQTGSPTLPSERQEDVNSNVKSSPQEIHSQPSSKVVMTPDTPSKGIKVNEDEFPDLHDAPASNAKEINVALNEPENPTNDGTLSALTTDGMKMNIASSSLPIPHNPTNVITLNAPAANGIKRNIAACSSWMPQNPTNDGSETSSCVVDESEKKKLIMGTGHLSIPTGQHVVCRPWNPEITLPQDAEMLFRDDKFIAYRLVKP

DRB4D3 [7] = molecular target: T5, DRB4D3; experiment: EMSA; 20 uM protein, 750 nM RNA; also higher concentrations; EMSA: 50 mM potassium phosphate pH 7.0, 50 mM NaCl, 50 mM Na2SO4, 2 mM DTT; 40 bp RNA at 750 nM, 30 min, room temperature; 32P 80 bp dsRNA at 1 nM, 1 h, 4 C; conditions: protein: recombinant, label: none (SYBR Gold stain), 1 nt 3' overhang (C) on complementary strand
DRB4 = molecular target: T8, DRB4 (Arabidopsis thaliana, UniProt Q8H1D4 1-355); experiment: EMSA; apparent Kd; Hill 2.44±0.45; EMSA: 50 mM potassium phosphate pH 7.0, 50 mM NaCl, 50 mM Na2SO4, 2 mM DTT; 40 bp RNA at 750 nM, 30 min, room temperature; 32P 80 bp dsRNA at 1 nM, 1 h, 4 C; conditions: protein: recombinant, label: none (SYBR Gold stain), 1 nt 3' overhang (C) on complementary strand
T8 sequence: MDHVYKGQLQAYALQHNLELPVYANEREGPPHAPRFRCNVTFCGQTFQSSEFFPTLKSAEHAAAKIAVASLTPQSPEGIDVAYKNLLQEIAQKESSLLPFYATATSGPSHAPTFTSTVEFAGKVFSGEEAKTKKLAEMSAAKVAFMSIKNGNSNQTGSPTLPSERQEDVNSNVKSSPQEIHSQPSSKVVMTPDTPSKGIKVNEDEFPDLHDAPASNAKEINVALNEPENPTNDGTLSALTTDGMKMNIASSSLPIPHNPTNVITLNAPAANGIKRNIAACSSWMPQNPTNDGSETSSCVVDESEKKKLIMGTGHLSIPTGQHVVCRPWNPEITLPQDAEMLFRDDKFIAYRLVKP

DRB4C (154-355) = molecular target: T9, DRB4C (154-355) (A. thaliana, UniProt Q8H1D4 154-355); experiment: ITC; DRB4 constructs (200 μM, syringe) injected into DRB7.2 or DRB7.2M (20 μM, cell); 25 °C; 50 mM potassium phosphate pH 7.0, 50 mM NaCl, 50 mM Na2SO4, 2 mM DTT; conditions: both partners purified
T9 construct: DRB4, A. thaliana, UniProt Q8H1D4, residues 154-355 (flexible segment N154-S293 and domain D3 E294-P355); source: cloned, expressed and purified as described (Chiliveri et al, 2017)
T9 sequence (looked up): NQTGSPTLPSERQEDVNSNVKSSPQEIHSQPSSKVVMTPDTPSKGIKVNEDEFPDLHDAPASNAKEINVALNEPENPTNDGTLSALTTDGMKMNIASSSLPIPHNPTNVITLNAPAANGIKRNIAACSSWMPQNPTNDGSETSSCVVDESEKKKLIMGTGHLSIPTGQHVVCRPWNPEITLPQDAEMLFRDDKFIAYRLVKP

DRB4 (1-355) = molecular target: B5; experiment: as above; conditions: both partners purified

- Kd (DRB7.2M (T71-G162) [1]): 2.84 ± 1.15 nM
- stoichiometry N (DRB7.2M (T71-G162) [1]): 0.95
- Kd (DRB7.2 (M1-V190)): 2.2 ± 1.2 nM
- Kd (DRB7.2M (T71-G162) [2]): 9.43 nM and ~9.5 nM
- stoichiometry N (DRB7.2M (T71-G162) [2]): 0.81
- stoichiometry N (DRB7.2M (T71-G162) [3]): 1
B1: DRB4D3 (294-355) (domain or fragment, A. thaliana, UniProt Q8H1D4 294-355, looked up)
chain: ETSSCVVDESEKKKLIMGTGHLSIPTGQHVVCRPWNPEITLPQDAEMLFRDDKFIAYRLVKP
notes: DRB4, A. thaliana, UniProt Q8H1D4, residues 294-355 (E294-P355); Isotope labelled (15N, 13C, 2H) or perdeuterated for NMR; source: cloned, expressed and purified as described (Chiliveri et al, 2017)

B2: 80 bp dsRNA (dsRNA)
RNA 1: GGGUGCUGUUUCUCGUGUUCGUGUUCGUUUCUCUUCUCUUGUCCUUGUUCUGUUCUCCUUUGUUCGUUCCUGUUCCCCUU
RNA 2: AAGGGGAACAGGAACGAACAAAGGAGAACAGAACAAGGACAAGAGAAGAGAAACGAACACGAACACGAGAAACAGCACCC
- binding result (DRB7.2 [4]): binds
- binding result (DRB7.2M): binds
- binding result (DRB7.2M;DRB4D3): binds
- binding result (DRB4D3 [5]): no binding

B3: 40 bp RNA (pre-siRNA) (dsRNA)
RNA 1: AACAAGCGAAUGAGUCAUUCAUCCUAAGUCUGCAUAAAGU
RNA 2: ACUUUAUGCAGACUUAGGAUGAAUGACUCAUUCGCUUGUUC
modifications: 5'-phosphate on guide strand
- binding result (DRB7.2N): no binding
- Kd (DRB7.2 [6]): 2280 ± 270 nM
- Kd (DRB7.2;DRB4): 1020 ± 170 nM
- binding result (DRB4D3 [7]): no binding
- Kd (DRB4): 3600 ± 310 nM

Binder: B4
- Kd (DRB4C (154-355)): 2.8 ± 1.6 nM
- Kd (DRB4 (1-355)): 3.1 ± 1.5 nM

Binder: B5
- stoichiometry N (DRB7.2 (M1-V190)): 0.8
